The values that follow are results of earlier work, collected in article PMC4072394.

One series has as its system Asp299. Kind of series: UV-vis. As to conditions: detergent-solubilised, unphotolysed (ground) state with protonated Schiff base.
The subject of a further series is Glu169. Kind of series: UV-vis. The note with it: detergent-solubilised, unphotolysed (ground) state with protonated Schiff base.

Turning to “Channelrhodopsin-1 (CaChR1) (Chlamydomonas augustae)”, the pKa result in the series with Asp299 is given as “near 5”; in the series with Glu169 it was “near 9”.
